Experimental data taken from patent US20070212341A1, “Method for Preparing Active Kinases Containing Ph Domains” (priority 2004, published 2007).

Tested on: histone 2B
Experiment: Kinase activity measurement (histone 2B phosphorylation, [33P]ATP flashplate)
Type: biochemical
Protocol: Another possibility of detecting the enzymic activity of Akt is that of incubating 100 ng of Akt, at 30° C. for 80 min, with 100 ng of histone 2B in a buffer composed of 50 mM Hepes (pH 7.5), 3 mM MgCl2 and 3 mM MnCl2, 3 μM sodium vanadate, 1 mM DTT, 1% DMSO, 100 nM ATP and 0.16 nM [^33P]-ATP. After stopping the reaction with phosphoric acid and washing with water, the incorporated cpm [counts per minute] are then determined, in a flashplate (NEN) in a Wallac Trilux measuring instrument, as a measure of the phosphorylation of the histone 2B. In this measuring instrument, the quantity of light which was generated from the radioactive decay by the scintillation gel present in the wells is measured quantitatively. It is a direct measure of the degree of phosphorylation of the Akt substrate employed.
In order to measure the kinase activity of truncated Akt1 (Akt1ΔPH) as well as of native Akt1, in each case 100 ng of Akt were incubated, at 30° C. for 80 min, with 100 ng of histone 2B in a buffer comprising 50 mM Hepes, pH 7.5, 3 mM MgCl2 and 3 mM MnCl2, 3 μM sodium vanadate, 1 mM DTT, 1% DMSO, 100 nM ATP and 0.16 nM [^33P]ATP. After the reaction had been stopped with phosphoric acid and the wells had been washed with water, the incorporated […], in a Wallac Trilux measuring instrument, as a measure of the histone 2B phosphorylation. In this measuring instrument, the quantity of light which was generated from the radioactive decay by the scintillation gel which was present in the wells was measured quantitatively. It is a direct measure of the degree of the phosphorylation of the Akt substrate employed.
Commercially obtainable wild-type Akt1 protein (Upstate Biochemicals, Charlottsville, Va., USA), which was likewise expressed in SF9 cells using the baculovirus system and then purified, was also used (results of the activity measurement in FIG. 1a, left-hand column).
The activity of an Akt derivative, which was expressed using the present method and obtained as an active kinase derivative, was compared with the activity of a commercially obtainable Akt1 enzyme (Upstate, Charlottsville, Va., USA). The activity of the commercially obtainable enzyme was obtained by expressing the enzyme, which contained the PH domain, in the baculovirus system and then purifying it. The enzyme was subsequently incubated with PDK1 in the presence of phosphatidylinositol […] lipid vesicles in order to phosphorylate Akt1 at threonine 308. After that, the activated Akt enzyme was separated chromatographically in order to separate it off from the activating PDK1 kinase. The enzyme activities of the two kinases were measured as described in Ex. 4.

[1] = FIG. 1a, 100 ng Akt, 100 ng histone 2B, 30° C., 80 min, expressed in SF9 cells

B1: PDK1-activated Akt1ΔPH: truncated Akt1 protein (amino acids 107-481, GST tag) without PH domain, activated by coexpression with truncated PDK1 in SF9 cells (protein)
chain: ADGLKKQEEEEMDFRSGSPSDNSGAEEMEVSLAKPKHRVTMNEFEYLKLLGKGTFGKVILVKEKATGRYYAMKILKKEVIVAKDEVAHTLTENRVLQNSRHPFLTALKYSFQTHDRLCFVMEYANGGELFFHLSRERVFSEDRARFYGAEIVSALDYLHSEKNVVYRDLKLENLMLDKDGHIKITDFGLCKEGIKDGATMKTFCGTPEYLAPEVLEDNDYGRAVDWWGLGVVMYEMMCGRLPFYNQDHEKLFELILMEEIRFPRTLGPEAKSLLSGLLKKDPKQRLGGGSEDAKEIMQHRFFAGIVWQHVYEKKLSPPFKPQVTSETDTRYFDEEFTAQMITITPPDQDDSMECVDSERRPHFPQFSYSASGTA
modifications: phosphorylated at threonine 308 and serine 473, as the filing says of the active form
- kinase activity compared with commercially obtainable native Akt1 activated by subsequent phosphorylation by PDK1 in the presence of lipid vesicles (Ex. 5, measured as described in Ex. 4): at least the same activity
- kinase activity (histone 2B phosphorylation) compared with Akt1ΔPH not activated by coinfection with PDK1-encoding baculoviruses [1]: markedly higher activity
- kinase activity (histone 2B phosphorylation) compared with Akt kinase derivative containing the PH domain with threonine 308 and serine 473 replaced with aspartic acid [1]: markedly higher activity
- kinase activity (histone 2B phosphorylation) compared with commercially obtainable wild-type Akt1 not activated by coinfection with PDK1-encoding baculoviruses (FIG. 1b, Ex. 4b, measured as in Ex. 4a): markedly higher activity
